Results on 1 molecule are retold here after paper PMC12631472, “Low-Cost Label-Free Electrochemical Aptasensor for Dual Detection of Dengue and Zika Using Fluorine-Doped Tin Oxide Modified with APTES and Gold Nanoparticles”.

For the data set, the target named is Dengue NS1 (NS1-D) (Dengue virus serotype 4, UniProt P09866 775-1126). Put plainly: electrochemical impedance spectroscopy; PBS; 1000 ng/mL NS1-D; dRct 114.1 ± 0.2%; LoD 0.21 ng/mL; PBS or commercial human serum; aptamer immobilized at 4 °C in 0.8 M PB, 1.0 M NaCl, 5 mM MgCl2, 1 mM EDTA, pH 7; aptamer:total thiol 1:250; assay temperature not stated. To be noted: protein: commercial; chain copies: 2.
Dengue NS1 (NS1-D), sequence (P09866 775-1126): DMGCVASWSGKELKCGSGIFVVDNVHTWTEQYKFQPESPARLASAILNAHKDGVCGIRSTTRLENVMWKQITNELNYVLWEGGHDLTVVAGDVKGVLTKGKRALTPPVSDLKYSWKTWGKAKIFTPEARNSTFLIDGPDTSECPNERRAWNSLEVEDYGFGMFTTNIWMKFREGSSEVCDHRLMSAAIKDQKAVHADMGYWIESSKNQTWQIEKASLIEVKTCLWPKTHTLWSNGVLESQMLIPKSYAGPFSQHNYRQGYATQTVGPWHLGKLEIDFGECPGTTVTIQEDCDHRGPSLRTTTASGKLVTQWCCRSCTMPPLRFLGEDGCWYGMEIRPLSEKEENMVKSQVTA

Take TTTTAGCGGATCCGATGGGTGGGGGGGTGGGTAGGATCCGCG (structured_DNA, 5'-HS-(CH2)6 thiol) [NS1 DNA aptamer]: the binding result was “binds”.
